Results reported in paper doi:10.1101/640771 (bioRxiv, 2019).

Molecular target: T1, ALFA-tagged target immobilised for SPR with NbALFA (TST-NEDD8-ALFA or GFP-ALFA) (synthetic (designed ALFA-tag))
T1 chain: SRLEEELRRRLTE
Experiment: SPR

B1: NbALFA (non-tagged) (VHH)
VHH: EVQLQESGGGLVQPGGSLRLSCTASGVTISALNAMAMGWYRQAPGERRVMVAAVSERGNAMYRESVQGRFTVTRDFTNKMVSLQMDNLKPEDTAVYYCHVLEDRVDSFHDYWGQGTQVTVSS
Binder B1 has a Kd of roughly 0.026 nM.
